Results published in the supplement of paper PMC10065799, “High-throughput profiling of sequence recognition by tyrosine kinases and SH2 domains using bacterial peptide display” (eLife, 2023).

System: c-Src
Assay: phosphorylation enrichment, bacterial display (enrichment ratio); higher = better substrate or ligand; peptides without Tyr show the background
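Note: 11-residue human phosphosite peptides and single-mutation variants displayed on the E. coli surface, counted by deep sequencing, each peptide's frequency after selection divided by its frequency in the unselected input library; frequency after pTyr selection over input frequency; kinase dosed for 20-30% of maximal phosphorylation in three min.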

Row | Sequence | phosphorylation enrichment
1 | LTFDEYRNISQ [ANXA3_Y216] | 0.643
2 | PEVSGYCHYAD [TG_Y234_C237Y] | 0.454
3 | ELAVNYQEQAS [SLC9A9_Y591_I589V] | 0.496
4 | GDPTEYFITAI [IGSF22_Y501_S503I_YF] | 0.555
5 | QNTGDDFDLFG [PTPN11_Y62_Y62D_YF] | 0.689
6 | RLAKTYETTLE [ALB_Y377] | 0.758
7 | DDFDLYGGEKF [PTPN11_Y66_Y62D_YF] | 2.14
8 | SAGSSYSISVI [PAX5_Y179_G183V] | 0.48
9 | FLNSIYKCRDE [ROS1_Y2227_S2229C] | 0.774
10 | ARLEFYENEKK [IRS1_Y47_YF] | 0.411
11 | FRVAGYKTQGG [TIA1_Y383_E384K_YF] | 0.342
12 | FCVVRYCWLRR [MPZ_Y181_Y177C] | 0.738
13 | TDHLQYFDSNK [ARAP1_Y359_R358Q] | 0.656
14 | AASHRYDLGGL [QPRT_Y162] | 0.391
15 | TISPYYCQSLF [CRYAA_Y48_R49C] | 1.76
16 | CTTIHYDFMCN [TP53_Y234_N235D_YF] | 0.545
17 | LPEENYQVLRF [ARHGAP1_Y365] | 1.32

Row | Sequence | phosphorylation enrichment
18 | VEEDTYTMPST [PTK2_Y407_D402V] | 4.81
19 | ACEVLYNIVFM [NCF2_Y125_A128V] | 2.18
20 | TNFPLYLRSLE [MTM1_Y71_R69P_YF] | 0.492
21 | VKPHRYRPGTV [H3-5_Y41] | 0.434
22 | YGGLRYGYGGL [KRTAP20-2_Y13_V17G] | 0.76
23 | DGYIDYAEFAK [MCFD2_Y138] | 0.912
24 | VTAALYGRLYE [BTD_Y536] | 4.81
25 | SHSMKYFDTAV [HLA-C_Y31_R30K] | 0.395
26 | EKKKYYDAKIE [CASP5_Y104_T106A] | 0.64
27 | HFVDEYDPTME [KRAS_Y32_I36M] | 0.634
28 | KVGNEYVNKGQ [MYH7_Y410_T412N] | 0.428
29 | RREWYYEVIIA [BACE1_Y260_V265A] | 0.926
30 | IGEVVYQRAAM [GRIN2A_Y502_V506A] | 1.27
31 | DLDLTYIYPNI [PTEN_Y27] | 1.4
32 | TPGPNYRPGYN [USH2A_Y463] | 0.309
33 | NQSVRYDSSLK [ABCC8_Y1353_L1349Q] | 0.433

System: AncSZ
Assay: as above

Row | Sequence | phosphorylation enrichment
34 | LTFDEYRNISQ [ANXA3_Y216] | 1.82
35 | PEVSGYCHYAD [TG_Y234_C237Y] | 0.864
36 | ELAVNYQEQAS [SLC9A9_Y591_I589V] | 0.96
37 | GDPTEYFITAI [IGSF22_Y501_S503I_YF] | 1.55
38 | QNTGDDFDLFG [PTPN11_Y62_Y62D_YF] | 1.7
39 | RLAKTYETTLE [ALB_Y377] | 0.86
40 | DDFDLYGGEKF [PTPN11_Y66_Y62D_YF] | 1.28
41 | SAGSSYSISVI [PAX5_Y179_G183V] | 0.986
42 | FLNSIYKCRDE [ROS1_Y2227_S2229C] | 0.953
43 | ARLEFYENEKK [IRS1_Y47_YF] | 1.1
44 | FRVAGYKTQGG [TIA1_Y383_E384K_YF] | 0.533
45 | FCVVRYCWLRR [MPZ_Y181_Y177C] | 0.718
46 | TDHLQYFDSNK [ARAP1_Y359_R358Q] | 0.809
47 | AASHRYDLGGL [QPRT_Y162] | 0.491
48 | TISPYYCQSLF [CRYAA_Y48_R49C] | 1.1
49 | CTTIHYDFMCN [TP53_Y234_N235D_YF] | 1.16
50 | LPEENYQVLRF [ARHGAP1_Y365] | 1.43

Row | Sequence | phosphorylation enrichment
51 | VEEDTYTMPST [PTK2_Y407_D402V] | 4.74
52 | ACEVLYNIVFM [NCF2_Y125_A128V] | 2.4
53 | TNFPLYLRSLE [MTM1_Y71_R69P_YF] | 0.716
54 | VKPHRYRPGTV [H3-5_Y41] | 0.513
55 | YGGLRYGYGGL [KRTAP20-2_Y13_V17G] | 0.645
56 | DGYIDYAEFAK [MCFD2_Y138] | 1.13
57 | VTAALYGRLYE [BTD_Y536] | 0.883
58 | SHSMKYFDTAV [HLA-C_Y31_R30K] | 0.579
59 | EKKKYYDAKIE [CASP5_Y104_T106A] | 0.777
60 | HFVDEYDPTME [KRAS_Y32_I36M] | 1.5
61 | KVGNEYVNKGQ [MYH7_Y410_T412N] | 0.581
62 | RREWYYEVIIA [BACE1_Y260_V265A] | 1.3
63 | IGEVVYQRAAM [GRIN2A_Y502_V506A] | 0.841
64 | DLDLTYIYPNI [PTEN_Y27] | 3.91
65 | TPGPNYRPGYN [USH2A_Y463] | 0.562
66 | NQSVRYDSSLK [ABCC8_Y1353_L1349Q] | 0.523

Biological target: MERTK (UniProt Q12866)
Assay: as above

MERTK, sequence (Q12866 whole entry, looked up): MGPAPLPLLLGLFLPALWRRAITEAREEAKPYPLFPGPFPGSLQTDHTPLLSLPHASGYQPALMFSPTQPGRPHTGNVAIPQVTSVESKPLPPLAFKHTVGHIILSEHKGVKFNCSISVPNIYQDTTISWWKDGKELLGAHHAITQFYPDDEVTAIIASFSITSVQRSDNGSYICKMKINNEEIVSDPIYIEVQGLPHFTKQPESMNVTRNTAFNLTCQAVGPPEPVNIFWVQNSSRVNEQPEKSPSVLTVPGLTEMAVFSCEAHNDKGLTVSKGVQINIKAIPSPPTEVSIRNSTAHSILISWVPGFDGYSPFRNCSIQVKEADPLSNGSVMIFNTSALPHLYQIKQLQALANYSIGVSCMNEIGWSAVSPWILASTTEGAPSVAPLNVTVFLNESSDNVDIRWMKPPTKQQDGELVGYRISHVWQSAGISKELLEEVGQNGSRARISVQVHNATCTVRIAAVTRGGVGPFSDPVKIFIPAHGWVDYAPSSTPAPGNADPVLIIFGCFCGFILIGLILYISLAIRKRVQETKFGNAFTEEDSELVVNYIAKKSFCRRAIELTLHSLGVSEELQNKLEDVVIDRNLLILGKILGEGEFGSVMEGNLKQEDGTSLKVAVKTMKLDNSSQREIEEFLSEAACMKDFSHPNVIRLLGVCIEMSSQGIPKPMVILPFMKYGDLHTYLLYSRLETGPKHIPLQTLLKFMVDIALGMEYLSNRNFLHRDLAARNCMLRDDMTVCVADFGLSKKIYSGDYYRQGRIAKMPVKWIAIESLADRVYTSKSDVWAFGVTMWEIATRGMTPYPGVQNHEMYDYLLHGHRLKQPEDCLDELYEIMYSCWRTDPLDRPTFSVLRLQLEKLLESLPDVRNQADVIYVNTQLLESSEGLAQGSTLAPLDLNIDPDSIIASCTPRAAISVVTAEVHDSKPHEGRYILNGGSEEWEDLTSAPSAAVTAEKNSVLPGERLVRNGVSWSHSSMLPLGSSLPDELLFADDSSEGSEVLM

Row | Sequence | phosphorylation enrichment
67 | LTFDEYRNISQ [ANXA3_Y216] | 0.498
68 | PEVSGYCHYAD [TG_Y234_C237Y] | 0.425
69 | ELAVNYQEQAS [SLC9A9_Y591_I589V] | 0.435
70 | GDPTEYFITAI [IGSF22_Y501_S503I_YF] | 0.482
71 | QNTGDDFDLFG [PTPN11_Y62_Y62D_YF] | 0.634
72 | RLAKTYETTLE [ALB_Y377] | 0.596
73 | DDFDLYGGEKF [PTPN11_Y66_Y62D_YF] | 0.475
74 | SAGSSYSISVI [PAX5_Y179_G183V] | 0.472
75 | FLNSIYKCRDE [ROS1_Y2227_S2229C] | 0.311
76 | ARLEFYENEKK [IRS1_Y47_YF] | 0.462
77 | FRVAGYKTQGG [TIA1_Y383_E384K_YF] | 0.436
78 | FCVVRYCWLRR [MPZ_Y181_Y177C] | 0.656
79 | TDHLQYFDSNK [ARAP1_Y359_R358Q] | 0.607
80 | AASHRYDLGGL [QPRT_Y162] | 0.327
81 | TISPYYCQSLF [CRYAA_Y48_R49C] | 5.18
82 | CTTIHYDFMCN [TP53_Y234_N235D_YF] | 0.49
83 | LPEENYQVLRF [ARHGAP1_Y365] | 0.802

Row | Sequence | phosphorylation enrichment
84 | VEEDTYTMPST [PTK2_Y407_D402V] | 1.6
85 | ACEVLYNIVFM [NCF2_Y125_A128V] | 3.19
86 | TNFPLYLRSLE [MTM1_Y71_R69P_YF] | 0.378
87 | VKPHRYRPGTV [H3-5_Y41] | 0.456
88 | YGGLRYGYGGL [KRTAP20-2_Y13_V17G] | 0.381
89 | DGYIDYAEFAK [MCFD2_Y138] | 0.455
90 | VTAALYGRLYE [BTD_Y536] | 2.68
91 | SHSMKYFDTAV [HLA-C_Y31_R30K] | 0.436
92 | EKKKYYDAKIE [CASP5_Y104_T106A] | 0.473
93 | HFVDEYDPTME [KRAS_Y32_I36M] | 0.66
94 | KVGNEYVNKGQ [MYH7_Y410_T412N] | 0.373
95 | RREWYYEVIIA [BACE1_Y260_V265A] | 1.52
96 | IGEVVYQRAAM [GRIN2A_Y502_V506A] | 0.441
97 | DLDLTYIYPNI [PTEN_Y27] | 2.41
98 | TPGPNYRPGYN [USH2A_Y463] | 0.487
99 | NQSVRYDSSLK [ABCC8_Y1353_L1349Q] | 0.423

Biological target: Fes (UniProt P07332)
Assay: as above

Fes, sequence (P07332 whole entry, looked up): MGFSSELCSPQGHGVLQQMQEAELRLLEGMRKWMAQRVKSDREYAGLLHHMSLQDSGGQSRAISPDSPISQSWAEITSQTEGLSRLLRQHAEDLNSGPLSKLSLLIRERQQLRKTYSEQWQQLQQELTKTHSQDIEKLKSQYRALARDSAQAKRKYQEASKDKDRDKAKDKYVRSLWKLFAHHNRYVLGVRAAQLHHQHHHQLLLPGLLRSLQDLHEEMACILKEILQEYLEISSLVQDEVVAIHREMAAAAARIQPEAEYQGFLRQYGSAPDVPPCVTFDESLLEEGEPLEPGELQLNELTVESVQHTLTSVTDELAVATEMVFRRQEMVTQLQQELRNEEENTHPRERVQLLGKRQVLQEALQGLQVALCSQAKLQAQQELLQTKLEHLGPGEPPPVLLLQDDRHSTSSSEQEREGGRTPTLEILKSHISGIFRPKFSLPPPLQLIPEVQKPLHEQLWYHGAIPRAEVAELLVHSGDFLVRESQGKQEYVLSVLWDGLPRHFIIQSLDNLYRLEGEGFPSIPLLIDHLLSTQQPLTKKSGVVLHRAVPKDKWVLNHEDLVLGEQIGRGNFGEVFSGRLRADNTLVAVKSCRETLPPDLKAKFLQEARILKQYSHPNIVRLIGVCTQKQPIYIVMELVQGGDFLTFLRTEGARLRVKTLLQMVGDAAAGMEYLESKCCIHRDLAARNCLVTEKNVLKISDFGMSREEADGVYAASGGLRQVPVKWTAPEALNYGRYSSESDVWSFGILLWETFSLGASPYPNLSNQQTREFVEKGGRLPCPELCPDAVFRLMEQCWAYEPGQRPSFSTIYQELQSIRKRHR

Row | Sequence | phosphorylation enrichment
100 | LTFDEYRNISQ [ANXA3_Y216] | 1.93
101 | PEVSGYCHYAD [TG_Y234_C237Y] | 1.1
102 | ELAVNYQEQAS [SLC9A9_Y591_I589V] | 1.06
103 | GDPTEYFITAI [IGSF22_Y501_S503I_YF] | 1.08
104 | QNTGDDFDLFG [PTPN11_Y62_Y62D_YF] | 1.75
105 | RLAKTYETTLE [ALB_Y377] | 1.39
106 | DDFDLYGGEKF [PTPN11_Y66_Y62D_YF] | 1.38
107 | SAGSSYSISVI [PAX5_Y179_G183V] | 0.975
108 | FLNSIYKCRDE [ROS1_Y2227_S2229C] | 0.909
109 | ARLEFYENEKK [IRS1_Y47_YF] | 0.995
110 | FRVAGYKTQGG [TIA1_Y383_E384K_YF] | 0.624
111 | FCVVRYCWLRR [MPZ_Y181_Y177C] | 0.76
112 | TDHLQYFDSNK [ARAP1_Y359_R358Q] | 1.31
113 | AASHRYDLGGL [QPRT_Y162] | 0.56
114 | TISPYYCQSLF [CRYAA_Y48_R49C] | 1.13
115 | CTTIHYDFMCN [TP53_Y234_N235D_YF] | 1.03
116 | LPEENYQVLRF [ARHGAP1_Y365] | 1.39

Row | Sequence | phosphorylation enrichment
117 | VEEDTYTMPST [PTK2_Y407_D402V] | 1.31
118 | ACEVLYNIVFM [NCF2_Y125_A128V] | 1.93
119 | TNFPLYLRSLE [MTM1_Y71_R69P_YF] | 0.761
120 | VKPHRYRPGTV [H3-5_Y41] | 0.573
121 | YGGLRYGYGGL [KRTAP20-2_Y13_V17G] | 0.839
122 | DGYIDYAEFAK [MCFD2_Y138] | 1
123 | VTAALYGRLYE [BTD_Y536] | 1.04
124 | SHSMKYFDTAV [HLA-C_Y31_R30K] | 0.572
125 | EKKKYYDAKIE [CASP5_Y104_T106A] | 0.978
126 | HFVDEYDPTME [KRAS_Y32_I36M] | 1.49
127 | KVGNEYVNKGQ [MYH7_Y410_T412N] | 0.541
128 | RREWYYEVIIA [BACE1_Y260_V265A] | 0.733
129 | IGEVVYQRAAM [GRIN2A_Y502_V506A] | 0.824
130 | DLDLTYIYPNI [PTEN_Y27] | 0.871
131 | TPGPNYRPGYN [USH2A_Y463] | 0.549
132 | NQSVRYDSSLK [ABCC8_Y1353_L1349Q] | 0.601
